This note sets out measurements from paper PMC13276077.

The term Kd denotes a measure of binding affinity in units of concentration.

The target in data set [1] is HisMBP-MeCP2 205-257 (DIR);histone octamer (Homo sapiens;, UniProt P51608;P0C0S8;P62807;P68431;P62805 205-257;2-130;2-126;2-136;2-103, |H2B T115C;H3.1 C96S;C110A). Nature of the data set: EMSA; 20 mM HEPES pH 7.5, 75 mM NaCl, 125 mM KCl, 50 uM EDTA, 2.5 mM beta-mercaptoethanol, 5% glycerol, BSA, 1.58 uM 47 bp competitor DNA (nucleosome assays); absent w.
Data set [2] deals with HisMBP-MeCP2 162-309;histone octamer (Homo sapiens;, UniProt P51608;P0C0S8;P62807;P68431;P62805 162-309;2-130;2-126;2-136;2-103, |H2B T115C;H3.1 C96S;C110A). The data set is described as above.
The target in data set [3] is MeCP2 R133G;histone octamer (Homo sapiens;, UniProt P51608;P0C0S8;P62807;P68431;P62805 1-486;2-130;2-126;2-136;2-103, R133G|H2B T115C;H3.1 C96S;C110A). Described as above.
Data set [4] concerns the target MeCP2 MBD;histone octamer (Homo sapiens;, UniProt P51608;P0C0S8;P62807;P68431;P62805 77-167;2-130;2-126;2-136;2-103, |H2B T115C;H3.1 C96S;C110A). The description is as above.
The target of data set [5] is MeCP2 full-length, e2 isoform;histone octamer (Homo sapiens;, UniProt P51608;P0C0S8;P62807;P68431;P62805 1-486;2-130;2-126;2-136;2-103, |H2B T115C;H3.1 C96S;C110A). The data set is described as above.
The target in data set [6] is MeCP2 AT-DIRmut;histone octamer (Homo sapiens;, UniProt P51608;P0C0S8;P62807;P68431;P62805 1-486;2-130;2-126;2-136;2-103, R188G;R190G;K254N;K256N;R268Q|H2B T115C;H3.1 C96S;C110A). The data set is described as above.
Data set [7] deals with HisMBP-MeCP2 162-309;histone octamer (Homo sapiens;Homo sapiens, UniProt P51608;P0C0S8;P62807;P68431;P62805 162-309;2-130;2-126;2-136;2-103, |H3.1 C96S;C110A). The data set is described as above.
Data set [8] concerns the target HisMBP-MeCP2 162-309;histone octamer, acidic patch mutant (Homo sapiens;Homo sapiens, UniProt P51608;P0C0S8;P62807;P68431;P62805 162-309;2-130;2-126;2-136;2-103, |H2A E61A;E91A;E92A;H2B E113A;H3.1 C96S;C110A). Nature of the data set: EMSA; acidic patch mutant histone octamer; 20 mM HEPES pH 7.5, 75 mM NaCl, 125 mM KCl, 50 uM EDTA, 2.5 mM beta-mercaptoethanol, 5% glycerol, BSA, 1.58 uM 47 bp competitor DNA (nucleosome assays); absent w.

Data set [9] concerns the target MeCP2 full-length, e2 isoform;histone octamer, tailless H3 (Homo sapiens;Homo sapiens, UniProt P51608;P0C0S8;P62807;P68431;P62805 1-486;2-130;2-126;26-136;2-103, |H3.1 del1-24;A25C;C96S;C110A). Description: EMSA; H3-tailless histone octamer; 20 mM HEPES pH 7.5, 75 mM NaCl, 125 mM KCl, 50 uM EDTA, 2.5 mM beta-mercaptoethanol, 5% glycerol, BSA, 1.58 uM 47 bp competitor DNA (nucleosome assays); absent w. (Mobility shift assays separate free from complexed probe on a gel.)

In data set [10] the target is MeCP2 full-length, e2 isoform;histone H1.0;histone octamer (Homo sapiens;Homo sapiens;, UniProt P51608;P07305;P0C0S8;P62807;P68431;P62805 1-486;1-194;2-130;2-126;2-136;2-103, ||H2B T115C;H3.1 C96S;C110A). Nature of the data set: EMSA; histone H1.0 pre-bound (chromatosome); 20 mM HEPES pH 7.5, 75 mM NaCl, 125 mM KCl, 50 uM EDTA, 2.5 mM beta-mercaptoethanol, 5% glycerol, BSA, 1.58 uM 47 bp competitor DNA (nucleosome assays); absent w.

For data set [11], the target named is HisMBP-MeCP2 205-257 (DIR) (Homo sapiens, UniProt P51608 205-257). Description: EMSA; 20 mM HEPES pH 7.5, 75 mM NaCl, 125 mM KCl, 50 uM EDTA, 2.5 mM beta-mercaptoethanol, 5% glycerol, BSA, 1.58 uM 47 bp competitor DNA (nucleosome assays; absent with free DNA), room temperature 30 min. To be noted: protein: recombinant; tags: His-MBP; label: 5' 6-FAM; blunt.

B1: 16-N603-30 nucleosome unmethylated (nucleosome)
DNA 1: GAGCCACAAAATCACCGACGCTCACGGGTGCCCAGTTCGCGCGCCCACCTACCGTGTGAAGTCGTCACTCGGGCTTCTAAGTACGCTTAGCGCACGGTAGAGCGCAATCCAAGGCTAACCACCGTGCATCGATGTTGAAAGAGGCCCTCCGTCCTTATTACTTCAAGTCCCTGGGGTACCCGTTTCACTGCCA
DNA 2: TGGCAGTGAAACGGGTACCCCAGGGACTTGAAGTAATAAGGACGGAGGGCCTCTTTCAACATCGATGCACGGTGGTTAGCCTTGGATTGCGCTCTACCGTGCGCTAAGCGTACTTAGAAGCCCGAGTGACGACTTCACACGGTAGGTGGGCGCGCGAACTGGGCACCCGTGAGCGTCGGTGATTTTGTGGCTC
As for B1, the Kd was 298 nM in [1]; 94.6 nM in [2]; 188 nM in data set [3]; 716 nM in data set [4]; 94.9 nM in [5]; 41.5 nM in data set [6].

B2: N601 nucleosome core particle unmethylated (nucleosome)
DNA 1: CAGGATGTATATATCTGACACGTGCCTGGAGACTAGGGAGTAATCCCCTTGGCGGTTAAAACGCGGGGGACAGCGCGTACGTGCGTTTAAGCGGTGCTAGAGCTGTCTACGACCAATTGAGCGGCCTCGGCACCGGGATTCTCCA
DNA 2: TGGAGAATCCCGGTGCCGAGGCCGCTCAATTGGTCGTAGACAGCTCTAGCACCGCTTAAACGCACGTACGCGCTGTCCCCCGCGTTTTAACCGCCAAGGGGATTACTCCCTAGTCTCCAGGCACGTGTCAGATATATACATCCTG
For the molecule B2, the Kd in data set [1] amounted to 1970 nM; in data set [2], 734 nM; in data set [7] it was 786 nM; in [8], 1830 nM. Further, in [5], the binding result is recorded as “no binding”.

B3: N603-30 nucleosome 91 meCpA (nucleosome)
DNA 1: GAGCCACAAAATCACCGACGCTCACGGGTGCCCAGTTCGCGCGCCCACCTACCGTGTGAAGTCGTCACTCGGGCTTCTAAGTACGCTTAGCGCACGGTAGAGCGCAATCCAAGGCTAACCACCGTGCATCGATGTTGAAAGAGGCCCTCCGTCCTTATTACTTCAAGTCCCTGGGGT
DNA 2: ACCCCAGGGACTTGAAGTAATAAGGACGGAGGGCCTCTTTCAACATCGATGCACGGTGGTTAGCCTTGGATTGCGCTCTACCGTGCGCTAAGCGTACTTAGAAGCCCGAGTGACGACTTCACACGGTAGGTGGGCGCGCGAACTGGGCACCCGTGAGCGTCGGTGATTTTGTGGCTC
modifications: asymmetric meCpA at 91
With B3, the dissociation constant Kd was determined as 61.4 nM in [5] and 47 nM in [9].

B4: N603-30 nucleosome (single 30 bp linker) (nucleosome)
DNA 1: GAGCCACAAAATCACCGACGCTCACGGGTGCCCAGTTCGCGCGCCCACCTACCGTGTGAAGTCGTCACTCGGGCTTCTAAGTACGCTTAGCGCACGGTAGAGCGCAATCCAAGGCTAACCACCGTGCATCGATGTTGAAAGAGGCCCTCCGTCCTTATTACTTCAAGTCCCTGGGGT
DNA 2: ACCCCAGGGACTTGAAGTAATAAGGACGGAGGGCCTCTTTCAACATCGATGCACGGTGGTTAGCCTTGGATTGCGCTCTACCGTGCGCTAAGCGTACTTAGAAGCCCGAGTGACGACTTCACACGGTAGGTGGGCGCGCGAACTGGGCACCCGTGAGCGTCGGTGATTTTGTGGCTC
Consider B4, for which the figures for the Kd in [5] and in [9] were 102 nM and 86.9 nM, respectively.

B5: 15-N601-15 nucleosome unmethylated (nucleosome)
DNA 1: ATGGAACACATTGCACAGGATGTATATATCTGACACGTGCCTGGAGACTAGGGAGTAATCCCCTTGGCGGTTAAAACGCGGGGGACAGCGCGTACGTGCGTTTAAGCGGTGCTAGAGCTGTCTACGACCAATTGAGCGGCCTCGGCACCGGGATTCTCCAGGGCGGCCGCGTATT
DNA 2: AATACGCGGCCGCCCTGGAGAATCCCGGTGCCGAGGCCGCTCAATTGGTCGTAGACAGCTCTAGCACCGCTTAAACGCACGTACGCGCTGTCCCCCGCGTTTTAACCGCCAAGGGGATTACTCCCTAGTCTCCAGGCACGTGTCAGATATATACATCCTGTGCAATGTGTTCCAT
For the molecule B5, the Kd is 581 nM in data set [1]; 240 nM in [2]; 596 nM in data set [3]; 1000 nM in data set [4]; 220 nM in [5]; 85.2 nM in [6]. This molecule also displayed a Kd in data set [8] of 217 nM. Further, the binding result in data set [10] was “no binding”.

B6: 15-N601-15 nucleosome -61 meCpG (nucleosome)
DNA 1: ATGGAACACATTGCACAGGATGTATATATCTGACACGTGCCTGGAGACTAGGGAGTAATCCCCTTGGCGGTTAAAACGCGGGGGACAGCGCGTACGTGCGTTTAAGCGGTGCTAGAGCTGTCTACGACCAATTGAGCGGCCTCGGCACCGGGATTCTCCAGGGCGGCCGCGTATT
DNA 2: AATACGCGGCCGCCCTGGAGAATCCCGGTGCCGAGGCCGCTCAATTGGTCGTAGACAGCTCTAGCACCGCTTAAACGCACGTACGCGCTGTCCCCCGCGTTTTAACCGCCAAGGGGATTACTCCCTAGTCTCCAGGCACGTGTCAGATATATACATCCTGTGCAATGTGTTCCAT
modifications: meCpG at -61 (GGCACCGGGATT)
For the molecule B6, the Kd in data set [3] was 534 nM; in data set [4], 809 nM; in data set [5] it was 137 nM; in data set [6], 78.6 nM. The binding result in data set [10] was “no binding”.

B7: 20 bp dsDNA (dsDNA)
DNA 1: AATACGCGGCCGCCCTGGAG
DNA 2: CTCCAGGGCGGCCGCGTATT
Turning to B7, the Kd in data set [11] was 814 ± 50.1 nM.
